In article PMC3206076, “Structural, Stability, Dynamic and Binding Properties of the ALS-Causing T46I Mutant of the hVAPB MSP Domain as Revealed by NMR and MD Simulations” (PLoS ONE, 2011):

Legend:
[1] = target: Nir2 peptide FFAT motif (Homo sapiens) (UniProt O00562); assay: ITC; conditions: cited from earlier work
[2] = target: T46I mutant of the hVAPB MSP domain (human, UniProt O95292 1-125, T46I); assay: ITC
Target sequence in this assay (O95292 1-125 T46I): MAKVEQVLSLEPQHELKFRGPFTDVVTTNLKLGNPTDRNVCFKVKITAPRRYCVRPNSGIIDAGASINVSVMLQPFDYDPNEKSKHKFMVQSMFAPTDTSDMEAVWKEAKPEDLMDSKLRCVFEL

[3] = target: T1, T46I mutant of the hVAPB MSP domain (human, UniProt O95292 1-125, T46I); assay: ITC; Microcal VP; peptide or EphA4 (300 µM) in the syringe, MSP protein (10 µM) in the cell; 50 mM Tris-HCl, 150 mM NaCl, 2 mM DTT, pH 7.5, 25°C; single binding site model; conditions: both partners purified
T1 construct: human VAPB MSP domain, residues 1-125, with the ALS-causing T46I mutation found in non-Brazilian kindred; Made by site-directed mutagenesis on the WT-MSP construct; PDB 3IKK is the structure of the WT parent; 15N-labelled for the HSQC titrations in which its own spectrum was observed; also called T46I-MSP domain; T46I-MSP
T1 sequence (O95292 1-125 T46I): as above

[4] = target: T2, wild-type (WT) hVAPB MSP domain (residues 1–125) (human, UniProt O95292 1-125); assay: NMR titration; 1H-15N HSQC of 15N-labeled WT-/T46I-MSP (100 µM) without or with unlabeled Nir2 peptide or EphA4 at molar ratios 1:0.5 to 1:8; 10 mM phosphate buffer, pH 6.8, 25°C; conditions: both partners purified
T2 construct: human VAPB (vesicle-associated membrane protein-associated protein B), MSP domain, residues 1-125; 15N-labelled for the HSQC titrations in which its own spectrum was observed; also called WT-MSP domain; WT-MSP
T2 sequence (O95292 1-125): as the sequence (O95292 1-125 T46I) above, with I46T counted along it

Chain of VAPB MSP (O95292 4-127): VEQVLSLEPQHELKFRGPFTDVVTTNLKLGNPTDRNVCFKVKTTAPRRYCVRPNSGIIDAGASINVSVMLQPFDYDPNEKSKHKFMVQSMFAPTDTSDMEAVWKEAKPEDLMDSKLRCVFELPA

Row | Ka [2] | Kd [3] | binding result [4] | Molecule | Kd [1]
1 |  |  |  | VAPB MSP (from UniProt O95292) | 650 nM
2 | 455000 M⁻¹ | 2200 nM | binds | EEEFFDAHE (FFAT-motif peptide of the Nir2 protein; also called the peptide; source: synthetic peptide, bought: Genesis Biotech Inc., further purified by HPLC (reverse-phase C18)) [Nir2 peptide (EEEFFDAHE)] | 
